Measured values as given in the supplement of paper PMC9170038.

Test system: K4 kissing-loop RNA reporter
Experiment: apparent KD of K4 kissing-loop reporter; higher = weaker reporter binding
Conditions: Eterna round: R107
Experimental: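 RNA-MaP round R107: designed RNA switches with theophylline, tryptophan, arginine or FMN aptamers are transcribed on-chip within common flanks. They are titrated with a labelled K4 kissing-loop RNA reporter in RNA-MaP buffer (100 mM Tris pH 7.5, 80 mM KCl, 4 mM MgCl2), without ligand or with the indicated ligand. Median apparent KD per design.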

[1] = input ligand: theophylline 20 uM
[2] = input ligand: tryptophan 2.4 mM
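Further: bound reporter read as fluorescence of individual clusters on recovered sequencing chips by microscopy, with normalized cluster intensities fitted with a binding model.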

Row | Sequence | apparent KD of K4 kissing-loop reporter (input ligand: FMN 200 uM) [nM] | apparent KD of K4 kissing-loop reporter (input ligand: arginine 13.2 mM) [nM] | apparent KD of K4 kissing-loop reporter (input ligand: none) [nM] | apparent KD of K4 kissing-loop reporter [1] [nM] | apparent KD of K4 kissing-loop reporter [2] [nM]
1 | UUUGGAAGCGGUGUUGAUUAGGGAGCGGAAGGAGCGCCGAUUAUGGCAGGUAGGUCGCCGGAAUGUAGUGAUGUUGCAUAGAGGG [ExArgA.W] | 209 | 234 | 202 | 263 | 83.9
2 | AACCACUCGUUACAUCACUAUCGAGUGGAACGAGGACCGGUACGGCCGCCACUCGAUAACUUGCAGUGAUGUUGCAAGUAAGAAU [(T)''-(K)'-(T)'-(T1)-(T2)-(K1)-(K2)_Design9] | 542 | 343 | 472 | 381 | 289
3 | AUGUCUAAUACGGCCGCCACUCGAGCAGUGAUGUUGCUCAGUAAUGGUCAUCGUCGUACAUGCCCGAGGACCGGGUAUUGAUUUG [Remain] | 147 | 122 | 140 | 145 | 175
4 | AUAGGCAUAGCCCGAGUGAUGUUCGACGAUACCAGCCUCGAUAGAGGCCCUUGGCAGCGUAAAUGAUCAUGAAGCCAAGGAAUUA [whbob_Ex_Theo_A_th70] | 360 | 335 | 408 | 394 | 277
5 | AAUAGGGAGUGAUGUUCCCUCACUUAUGAUACCAGUGCCAUCGGACACCCUUGGCAGCAUACGGGCAGUGAUGUUGUUCUUGGAA [Exclusion Theophylline A GF 25] | 129 | 148 | 156 | 155 | 119
6 | GUGCGGUGGAGGUUACCGCUAUUCUGAGAAGGAGCGCAGAUGACUGCAGGUAGGUCGCUUAGAGCUUGCAGUGAUGUUGCAAGUU [Berienza] | 220 | 174 | 199 | 166 | 200
7 | AUUAUAUAGGCGGCCGCCACUAGUGAUGUUAGUGACUUUAUGAAAACAUAAAGAAUAAAAUAAUAUAGGACCGGGCCAUAAUAUU [AstrosExTryB#5] | 475 | 369 | 450 | 427 | 432
8 | UACAGGGAUAGUGAUGUUAUCCCAUGUGAUACCAGUGUCAUCCAACACCCUUGGCAGCAUACGGGCAGUGAUGUUGUUCUUGGUA [#17 K4 Theophylline A Exclusion] | 91.7 | 75.4 | 91.6 | 77.5 | 84.3
9 | AAGUGUGUGGCGGCCGCCACUAGAAUCCAGUGAUGUUGGAGUUAUCAGAUAAAUGAUAAUCAACAUAGGACCGGGCCAUAUAGAA [Same State - Tryptophan B (Freestyle 5)] | 703 | 689 | 455 | 630 | 425
10 | GAUCUGAACGAAAGUUCGGAUCAGUCCGAUACCAGUAUGGAUUCAUACCCUUGGCAGCGGAAAUCUGCUAUGGAGUGAUGUUCCA [Theophylline A K4 14] | 532 | 328 | 379 | 418 | 391
11 | UGACAUUGCUCAGAUACCAGACUUGAGGAUCACCCAAGUGCCAAAUAAACGUACAUAAAAGUCCCUUGGCAGCUGAGCAAUGUCU [TheoBX 11] | 72.9 | 46.3 | 41.3 | 99 | 33.4
12 | GCCGUACGCAUGGAUACCAGUCUUUCGCGACUGGACAUGGAGUGAUGUUUCGUGAUGCUAGACCCUUGGCAGCCAUGCGUACGGC | 233 | 163 | 206 | 234 | 201
13 | AAGACUUGCAUCGAUACCAGCCCAGUGAUGUUGGGCUGCUCUCCAUGGGUGCCAGACACGGGCCCUUGGCAGCGAGGUAAGGCCC [Soveri] | 129 | 110 | 113 | 109 | 106
14 | UUGGAGUGAUGUUCCAUGUCUUGAGCCGAAGGAGCGCCUUUCUAGGCAGGUAGGUCGCGGCAGAAGGUACCAGUGAUGUUGGAAA [Same State Arginine A GF9] | 161 | 225 | 283 | 222 | 164
15 | CGAGCGGAGUGAUGUUCCGUGCCAGCAGAUACCAGAUUGAAAGAGAUCCCUUGGCAGCUGCGUCACACCCUUACGUGAUAGGACC [theeternabot_sameState_KL_Theo_A_32] | 244 | 178 | 239 | 275 | 165
16 | CUGCCGUUUACAGAUACCAGACUAAUAACGGCAGCACAGAAUGUGAGUGAUGUUCGCAUAGUCCCUUGGCAGCUGUAUAACAGUA [Theo B Ex t3] | 219 | 199 | 227 | 287 | 191
17 | AUUAUAUAGGCGGCCGCCACUAGUGAUGUUAGUGACUAUAUGAAAACAUAUAGAAUAAAAUAAUAUAGGACCGGGCCAUAAUAUU [AstrosExTryB#4] | 498 | 392 | 423 | 425 | 471
18 | UAUACUAGACAAGAGAGAAUUCUCUCAAGAGAGGAUAUCCGAAUUCGGAGAAGGCUCGCUAAGUGAUGUUUGGAAUAGUCUAGAA [AK4 SS FMN A] | 418 | 352 | 339 | 319 | 384
19 | GGAUCCACCAGUGAUGUUGGAGAAAACUCCGAGGAUAUGACGAAAGUCAGAAGGUGGUAGACUGGACAAAGUCCGGUCGGAUCCA [FmnA 24 #SwitchBubble #K4Early] | 790 | 83.3 | 288 | 162 | 101
20 | CUUAAGACAUGAGUGAUGUUCAUGUCCGAAGGAGCGUGCGAAAGCACAGGUAGGUCGCGGACGUGAGUGAUGUUCAUGUAAGCGA [KL-XArg-A11 #analogue] | 159 | 125 | 156 | 154 | 140
21 | UGCUUUAUCAGAAGGAGCGCGUUAUUCAUAAUAAUAAUCAGUGAUGUUGAUAUAUGAUGAUUGCAGGUAGGUCGCUGAUAUAGCU [KL-XARG-B3] | 310 | 225 | 274 | 253 | 259
22 | CUAUAUAGUGAUGUUAUAUAGAUAACAGAUACCAGCUAGAAAACUAGCCCUUGGCAGCUGAUAAGGGAAAGUAUAAUUGUGUAAA [AstroSTH-A#DifdesignED20.18] | 82.1 | 73 | 76 | 64.8 | 73.7
